The target of the assay is IL-4R (interleukin-4 receptor) (UniProt P24394). Put plainly: cell-based or functional assay.
Sequence of UniProt P24394 (P24394 26-825 limits assumed): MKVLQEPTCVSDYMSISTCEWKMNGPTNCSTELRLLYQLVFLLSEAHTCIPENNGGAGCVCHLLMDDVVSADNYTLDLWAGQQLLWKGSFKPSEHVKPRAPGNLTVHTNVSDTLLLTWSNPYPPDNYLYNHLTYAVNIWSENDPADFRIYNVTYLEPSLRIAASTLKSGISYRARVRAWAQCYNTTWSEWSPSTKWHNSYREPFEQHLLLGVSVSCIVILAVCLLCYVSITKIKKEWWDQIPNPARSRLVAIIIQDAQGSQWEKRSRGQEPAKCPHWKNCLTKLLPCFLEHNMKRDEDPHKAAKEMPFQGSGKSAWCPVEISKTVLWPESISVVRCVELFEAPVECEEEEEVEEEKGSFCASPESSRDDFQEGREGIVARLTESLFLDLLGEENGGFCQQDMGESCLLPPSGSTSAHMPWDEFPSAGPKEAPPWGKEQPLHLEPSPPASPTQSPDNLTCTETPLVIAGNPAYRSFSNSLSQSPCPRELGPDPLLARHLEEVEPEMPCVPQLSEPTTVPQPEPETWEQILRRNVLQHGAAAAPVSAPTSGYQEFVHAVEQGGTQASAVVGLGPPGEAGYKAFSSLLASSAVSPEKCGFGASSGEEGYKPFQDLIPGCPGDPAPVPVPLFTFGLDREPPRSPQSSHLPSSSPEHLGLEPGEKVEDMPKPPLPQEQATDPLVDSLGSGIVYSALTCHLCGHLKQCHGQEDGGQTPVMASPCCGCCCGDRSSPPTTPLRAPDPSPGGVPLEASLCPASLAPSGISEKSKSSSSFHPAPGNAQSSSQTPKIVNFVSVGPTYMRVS

B1: anti-IL-4R:anti-CD63 conjugate (streptavidin-conjugated anti-IL-4R antibody combined 1:1 with biotinylated anti-CD63 antibody MEM-259) (bispecific antibody, part only; not given: anti-CD63 MEM-259 antibody, constant regions, V domains shown, part only)
VH: EVQLVESGGGVVQPGRSLRLSCVASGFTFSDYGMHWVRQAPGKGLEWVAVIWYDGSIKYFRDSVKGRFTISRDNSKNTLYLQMNSLRVEDTAHYYCAKESSSWYFYHGLDVWGQGTMVTVSS
VL: EIVMTQSPLSLPVSPGEPASISCRSNQSLLHSNGNNYLAWYLQKPGQSPHLLIYLGSNRASGVPDRFSGSGSGTDFTLKISRVEAGDVGTYFCMQSLQAPPFTFGPGTKVEIKR
modifications: antibody conjugated to streptavidin
For the molecule B1, the attenuation of IL-4R activity relative to the control constructs is above 10%.

The values above are taken from patent US20200095338A1.
